Source: the supplement of paper PMC7125110
± gives the standard error. For part of these data: Fewer inactive variants are shown than the library holds.

B1: glmS ribozyme (parent)
chain: AUAAAAGCGCCAGAACUACAGAAAUGUAGUUGACGAGGAGGAGGUUUAUCGAAUUUUCGGCGGAUGCCUCCAAA

Columns and labels:
Conditions in all cases: with glucosamine-6-phosphate
glucosamine-6-phosphate [1] = variants of: B1; test: kcat; higher = faster cleavage; RNA array
In short: (§1)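 Over ~14 h at 37 °C, tiles were imaged as glucosamine-6-phosphate (40 μM to 10 mM) in HEPES/KCl/Mg(OAc)2 buffer flowed across sequenced MiSeq chips. The chips carried barcoded ribozyme variants transcribed in situ by E. coli RNA polymerase and tracked with a hybridised Cy3 probe. After normalisation to baseline and to non-cleaving reference variants, one- or two-exponential decay fits of per-tile medians gave kobs. kcat and KM followed from weighted Michaelis–Menten fits across concentrations.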

glucosamine-6-phosphate [2] = variants of: B1; test: KM; higher = weaker cofactor use; RNA array
In short: as §1

glucosamine-6-phosphate [3] = variants of: B1; test: self-cleavage kobs at 2500 uM GlcN6P; higher = faster cleavage; RNA array
In short: as §1

glucosamine-6-phosphate [4] = variants of: B1; test: self-cleavage kobs at 10000 uM GlcN6P; higher = faster cleavage; RNA array
In short: as §1

glucosamine-6-phosphate [5] = variants of: B1; test: self-cleavage kobs at 40 uM GlcN6P; higher = faster cleavage; RNA array
In short: as §1

glucosamine-6-phosphate [6] = variants of: B1; test: self-cleavage kobs at 160 uM GlcN6P; higher = faster cleavage; RNA array
In short: as §1

glucosamine-6-phosphate [7] = variants of: B1; test: self-cleavage kobs at 640 uM GlcN6P; higher = faster cleavage; RNA array
In short: as §1

Variant	kcat (glucosamine-6-phosphate [1])	KM (glucosamine-6-phosphate [2])	self-cleavage kobs at 2500 uM GlcN6P (glucosamine-6-phosphate [3])	self-cleavage kobs at 10000 uM GlcN6P (glucosamine-6-phosphate [4])	self-cleavage kobs at 40 uM GlcN6P (glucosamine-6-phosphate [5])	self-cleavage kobs at 160 uM GlcN6P (glucosamine-6-phosphate [6])	self-cleavage kobs at 640 uM GlcN6P (glucosamine-6-phosphate [7])
G29U C58U	0.000107 ± 1.1e-05 s⁻¹	3710 ± 980 µM	4.57e-05 ± 9.1e-06 s⁻¹	7.71e-05 ± 8.8e-06 s⁻¹			
A33U G38C	< 1e-05 s⁻¹			< 1e-05 s⁻¹			
A15G A39C	0.0119 ± 0.0054 s⁻¹		0.00446 ± 0.00072 s⁻¹	0.00811 ± 0.00088 s⁻¹	0.000149 ± 1.5e-05 s⁻¹	0.000242 ± 6.6e-05 s⁻¹	0.0011 ± 0.00014 s⁻¹
U31C U47G	0.000887 ± 0.00023 s⁻¹	1440 ± 640 µM	0.000426 ± 7e-05 s⁻¹	0.00102 ± 0.00013 s⁻¹	3.36e-05 ± 9.1e-06 s⁻¹	8.85e-05 ± 1.5e-05 s⁻¹	0.000292 ± 4.5e-05 s⁻¹
U65G C70G	0.000265 ± 5.4e-05 s⁻¹	1470 ± 600 µM	0.000176 ± 1.3e-05 s⁻¹	0.000228 ± 2.3e-05 s⁻¹		4.76e-05 ± 7.4e-06 s⁻¹	7.04e-05 ± 6.8e-06 s⁻¹
G26U	0.0318 ± 0.01 s⁻¹	1200 ± 480 µM	0.0179 ± 0.0032 s⁻¹	0.0456 ± 0.0065 s⁻¹	0.00112 ± 7.2e-05 s⁻¹	0.00324 ± 0.00048 s⁻¹	0.00931 ± 0.0012 s⁻¹
U30G G41C	0.00013 ± 5.4e-06 s⁻¹	2760 ± 240 µM	6.27e-05 ± 1.2e-05 s⁻¹	0.000101 ± 2.7e-05 s⁻¹			
C58G U65G	< 1e-05 s⁻¹						
U56C C71U	0.000531 ± 7.9e-05 s⁻¹	1380 ± 590 µM	0.000287 ± 5.6e-05 s⁻¹	0.000477 ± 4.5e-05 s⁻¹			0.000219 ± 3.6e-05 s⁻¹
A39C U45A A53U C70U	4.71e-05 ± 2.2e-06 s⁻¹	835 ± 200 µM		4.34e-05 ± 1.8e-05 s⁻¹			
A12G A14U	0.000731 ± 0.0002 s⁻¹	5700 ± 2200 µM	0.000195 ± 1.9e-05 s⁻¹	0.000524 ± 6.4e-05 s⁻¹			8.27e-05 ± 8e-06 s⁻¹
C16U A33U C71G	2.09e-05 ± 7.7e-06 s⁻¹						
U47C U57A	0.000495 ± 0.00012 s⁻¹		2.94e-05 ± 1.3e-05 s⁻¹	0.0001 ± 2.7e-05 s⁻¹			
A14G A64G U65A	0.00407 ± 0.0014 s⁻¹		0.00271 ± 0.0008 s⁻¹	0.00718 ± 0.0031 s⁻¹	0.000284 ± 0.0001 s⁻¹	0.000621 ± 0.00019 s⁻¹	0.00307 ± 0.0012 s⁻¹
U31G G59U	3.05e-05 ± 9.5e-07 s⁻¹	511 ± 160 µM		2.88e-05 ± 1e-05 s⁻¹			
G13U G32U	0.00043 ± 2.8e-05 s⁻¹	3420 ± 370 µM	0.000182 ± 3.1e-05 s⁻¹	0.000321 ± 3.4e-05 s⁻¹		2.69e-05 ± 1.1e-05 s⁻¹	6.64e-05 ± 8.3e-06 s⁻¹
U57A C61A	1.53e-05 ± 5.7e-06 s⁻¹						
A42G A52G	0.00211 ± 0.00034 s⁻¹	2550 ± 600 µM	0.000991 ± 8.9e-05 s⁻¹	0.00187 ± 0.00037 s⁻¹		0.000117 ± 1.7e-05 s⁻¹	0.000471 ± 4.8e-05 s⁻¹

Variant	kcat (glucosamine-6-phosphate [1])	KM (glucosamine-6-phosphate [2])	self-cleavage kobs at 2500 uM GlcN6P (glucosamine-6-phosphate [3])	self-cleavage kobs at 10000 uM GlcN6P (glucosamine-6-phosphate [4])	self-cleavage kobs at 40 uM GlcN6P (glucosamine-6-phosphate [5])	self-cleavage kobs at 160 uM GlcN6P (glucosamine-6-phosphate [6])	self-cleavage kobs at 640 uM GlcN6P (glucosamine-6-phosphate [7])
A42G A52C	1.58e-05 ± 1.8e-06 s⁻¹						
G51A G59A C70U	1.55e-05 ± 3.5e-06 s⁻¹			< 1e-05 s⁻¹	< 1e-05 s⁻¹		
A15G U31A	0.0107 ± 0.0009 s⁻¹	2220 ± 260 µM	0.00493 ± 0.0014 s⁻¹	0.00926 ± 0.0017 s⁻¹	0.000199 ± 4.4e-05 s⁻¹	0.000722 ± 0.00015 s⁻¹	0.00236 ± 0.00063 s⁻¹
G29U C50A G60U	1e-05 ± 4.9e-06 s⁻¹		< 1e-05 s⁻¹				
G13U U55A	0.00182 ± 0.00037 s⁻¹	3540 ± 1200 µM	0.000853 ± 0.00015 s⁻¹	0.00135 ± 0.00013 s⁻¹	3.28e-05 ± 7.2e-06 s⁻¹	8.82e-05 ± 1.7e-05 s⁻¹	0.000214 ± 4e-05 s⁻¹
U56A C68A	4.71e-05 ± 1.1e-05 s⁻¹		5.61e-05 ± 1e-05 s⁻¹			5.43e-05 ± 1e-05 s⁻¹	5.74e-05 ± 1e-05 s⁻¹
G32A G41A	0.00039 ± 9.1e-05 s⁻¹	4740 ± 2000 µM	0.000116 ± 1.6e-05 s⁻¹	0.000279 ± 3e-05 s⁻¹			6.12e-05 ± 1.1e-05 s⁻¹
U30A U57G	2.86e-05 ± 9.5e-06 s⁻¹		3.99e-05 ± 1.7e-05 s⁻¹				
A53G U65A	0.00318 ± 0.00053 s⁻¹	1530 ± 350 µM	0.00184 ± 0.00046 s⁻¹	0.00272 ± 0.00056 s⁻¹	8.56e-05 ± 1.5e-05 s⁻¹	0.000257 ± 5e-05 s⁻¹	0.00114 ± 0.00019 s⁻¹
G66C C67A	0.000183 ± 3e-05 s⁻¹	2370 ± 860 µM	0.000107 ± 1.6e-05 s⁻¹	0.000137 ± 2.5e-05 s⁻¹			3.04e-05 ± 1.2e-05 s⁻¹
G13U G29U U31C	1.48e-05 ± 3.5e-06 s⁻¹				< 1e-05 s⁻¹		
U31C G44U C67G	0.00162 ± 0.00031 s⁻¹	2430 ± 830 µM	0.0011 ± 0.00027 s⁻¹	0.00124 ± 0.00024 s⁻¹			0.00032 ± 7.1e-05 s⁻¹
C11A U47A	8.3e-05 ± 1.6e-05 s⁻¹		5.35e-05 ± 2.1e-05 s⁻¹	6.56e-05 ± 1.8e-05 s⁻¹			
C16G C70A	3.75e-05 ± 1.5e-05 s⁻¹		6.29e-05 ± 1.4e-05 s⁻¹	2.51e-05 ± 1.1e-05 s⁻¹			
A15C C16A G62U	< 1e-05 s⁻¹				< 1e-05 s⁻¹		
C16G C68G	1.82e-05 ± 5.5e-06 s⁻¹						
C16G C34U	< 1e-05 s⁻¹			< 1e-05 s⁻¹	< 1e-05 s⁻¹	< 1e-05 s⁻¹	< 1e-05 s⁻¹
C16G G41A	9.56e-05 ± 1.7e-05 s⁻¹		7.9e-05 ± 1.8e-05 s⁻¹	7.96e-05 ± 1.2e-05 s⁻¹		< 1e-05 s⁻¹	
